For assay [1], the target named is SARS-CoV-2 S蛋白 (spike) on live virus, 分离株 BetaCoV/JS03/human/2020 (SARS-CoV-2, UniProt P0DTC2 14-1273). Briefly: cell-based or functional assay.
Assay [2] has as its target 重组SARS-CoV-2刺突蛋白胞外区 (extra cellular domain of spike protein) (SARS-CoV-2, UniProt P0DTC2 14-1213). Briefly: SPR, Biacore 8K, S-ECD coupled to a CM5 chip, antibody 125nM~7.8nM in solution.
For assay [3], the target named is SARS-CoV-2 S蛋白 (spike) on live virus, 分离株 BetaCoV/JS03/human/2020 (SARS-CoV-2, UniProt P0DTC2 14-1273). Briefly: cell-based or functional assay. This is another data set of the same source.

B1: FC05 (antibody, V domains shown)
VH: VQLLEQSGAEVKKPGASVRVSCKVSGYTLPEVAMHWVRQAPGKGLEWMGGFDPEDGETIYAQKFQGRVTMTEDTSTDTAYMELSSLRSEDTAVYYCATTTPFSSSFWFDPWGQGTLVTVSS
VL: QSVLTQAPSVSGAPGQKVTISCSGSSSNIGNNYVSWYQQLPGTAPKLLIYDNNKRPSGIPDRFSGSKSGTSATLGITGLQTGDEADYYCGTWDSSLSAVVFGGGTKLTVL
As to B1, the “IC50(ng/ml), 体外中和实验 (live virus, Vero E6, CPE)” value (from here on “IC50(ng/ml), 体外中和实验”) in assay [1] is 142 ng/mL.

B2: FC11 (antibody, V domains shown)
VH: EVQLLESGGGVVQPGRSLRLSCAASGFTFSYYGMHWVRQAPGTGLEWVAVISYDGSNEYYADSVKGRFTISRDNSKNTLYLQMNSLRAEDTAVYYCAKAMFLGDSSGLTGLDMDVWGQGTTVTVSS
VL: DIELTQSPGTLSLSPGERATLSCRASQSVSSYLAWYQQKPGQAPRLLIYDASNRATGIPARFSGSGSGTDFTLTISSLEPEDFALYYCQQRGNWPPTFGGGTKLEIK
For orientation: Kd means the concentration at which binding is half-saturated. Turning to B2, the Kd in assay [2] stood at 0.5 nM. In addition, in assay [3], the “IC50(ng/ml), 体外中和实验” value came to 818 ng/mL.

B3: FC08 (antibody, V domains shown)
VH: VQLLQQSGAEVKKPGSSVKVSCKASGGTFSSYAISWVRQAPGQGLEWMGGIIPILGIANYAQKFQGRVTITADKSTSTAYMELSSLRSEDTAVYYCVRERGYSGYGAAYYFDYWGQGTLVTVSS
VL: QSVLTQPPSVSGAPGQRVTISCTGSSSNIGAGYDVHWYQQLPGTAPKLLIYGNSNRPSGVPDRFSGSKSGTSASLAITGLQAEDEADYYCQSYDSSLSGSVFGGGTKLTVL
In assay [2], B3 had a Kd of 0.8 nM. The “IC50(ng/ml), 体外中和实验” value in assay [3] was found to be 325 ng/mL.
